Data taken from patent US20210284724A1 (I MAB BIOPHARMA US, published 2021).

T1: human CXCL13 (human, UniProt O43927 23-109)
T1 construct: also called huCXCL13; rhCXCL13
T1 sequence (looked up): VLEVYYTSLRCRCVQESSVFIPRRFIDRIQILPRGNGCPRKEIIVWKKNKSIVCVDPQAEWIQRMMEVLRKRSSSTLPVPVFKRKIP

T2: cynomolgus CXCL13 (cynomolgus, UniProt H6WS58 23-109)
T2 construct: also called cynoCXCL13; Cyno CXCL13
T2 sequence: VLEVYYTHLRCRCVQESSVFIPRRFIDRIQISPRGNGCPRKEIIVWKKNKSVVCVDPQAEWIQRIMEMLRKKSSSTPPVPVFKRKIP

T3: mouse CXCL13 (mouse, UniProt O55038 22-109)
T3 construct: also called rmCXCL13
T3 sequence (looked up): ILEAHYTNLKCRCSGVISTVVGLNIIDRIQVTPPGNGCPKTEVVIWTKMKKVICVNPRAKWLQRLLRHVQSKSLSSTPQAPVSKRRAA


Tests used:
human CXCL13 [1] = molecular target: T1, human CXCL13; test: SPR Biacore, off-rate ranking of Fabs
human CXCL13 [2] = molecular target: T1, human CXCL13; test: SPR Biacore 8K, Fab over immobilised CXCL13
Procedure: Among all humanized Fab samples, 71F4A3-VH2VL1, 71F4A3-VH1VL1 (Hz71F4), 71F4A3-VH1VL2, 71F4A3-VH3VL1, 411A11E9-VH1VL4, 411A11E9-VH3VL4, 411A11E9-VH2VL4, 411A11E9-VH3VL2, 411A11E9-VH1VL2, 21H12D9-VH1VL1, 21H12D9-VH2VL2, 21H12D9-VH3VL3, 21H12D9-VH1VL2, 64C10G1-VH1VL3, 64C10G1-VH1VL4, 64C10G1-VH1VL1, 64C10G1-VH1VL2 were selected to test affinity by Biacore 8K. 10 mM HEPES, 150 mM NaCl, 3 mM EDTA, 0.05% Tween-20, pH 7.4 served as running buffer and 10 mM glycine-HCl, pH2.0 served as regeneration buffer. CXCL13 protein were immobilized on Sensor Chip CM5 using amine coupling method (immobilization level ˜250RU). The serial concentrations of Fab (0-20 nM) were injected over immobilized CXCL13 at the flow rate of 30 μl/min. The dissociation phases were 600s.

human CXCL13 [3] = molecular target: T1, human CXCL13; test: ELISA, coated antigen
cynomolgus CXCL13 = molecular target: T2, cynomolgus CXCL13; test: ELISA, coated antigen
mouse CXCL13 = molecular target: T3, mouse CXCL13; test: ELISA, coated antigen

Row | Binder | Kd (human CXCL13 [1]) [nM] | koff (human CXCL13 [1]) [s⁻¹] | kon (human CXCL13 [1]) [M⁻¹ s⁻¹] | Kd (human CXCL13 [2]) [nM] | koff (human CXCL13 [2]) [s⁻¹] | kon (human CXCL13 [2]) [M⁻¹ s⁻¹] | EC50 (human CXCL13 [3]) [µg/mL] | EC50 (cynomolgus CXCL13) [µg/mL] | binding result (mouse CXCL13)
1 | 411A11E9-VH1VL4 (Fab, V domains shown, Humanized Fab, human gamma 1 and kappa constant domains) VH: EVQLVESGGGLVQPGGSLRLSCAASGFTFSDYYMAWVRQAPGKGLEWVASINYDGGDTYYRDSVKGRFTISRDNAKNSLYLQMNSLRAEDTAVYYCAREEDYDGSYVMDAWGQGTLVTVSS VL: DIQMTQSPSSLSASVGDRVTITCKASQNINKELTWYQQKPGKAPKRLIYNTNILQTGIPSRFSGSGSGTEYTLTISSLQPEDFATYFCLQQSSLYTFGQGTKLEIK | 1.82 | 0.00063 | 346000 | 0.844 | 0.00157 | 1.86e+06 | – | – | –
2 | 411A11E9-VH3VL4 (Fab, V domains shown, Humanized Fab, human gamma 1 and kappa constant domains) VH: EVQLVESGGGLVQPGGSLRLSCAVSGFTFSDYYMAWVRQAPGKGLEWVASINYDGGDTYYRDSVKGRFTISRDNAKNSLYLQMNSLRAEDTAVYYCATEEDYDGSYVMDAWGQGTLVTVSS VL: DIQMTQSPSSLSASVGDRVTITCKASQNINKELTWYQQKPGKAPKRLIYNTNILQTGIPSRFSGSGSGTEYTLTISSLQPEDFATYFCLQQSSLYTFGQGTKLEIK | 0.498 | 0.00109 | 2.19e+06 | 0.908 | 0.000823 | 906000 | – | – | –
3 | 411A11E9-VH3VL2 (Fab, V domains shown, Humanized Fab, human gamma 1 and kappa constant domains) VH: EVQLVESGGGLVQPGGSLRLSCAVSGFTFSDYYMAWVRQAPGKGLEWVASINYDGGDTYYRDSVKGRFTISRDNAKNSLYLQMNSLRAEDTAVYYCATEEDYDGSYVMDAWGQGTLVTVSS VL: DIQMTQSPSSLSASVGDRVTITCKASQNINKELTWYQQKPGKAPKRLIYNTNILQTGVPSRFSGSGSGTEFTLTISSLQPEDFATYFCLQQSSLYTFGQGTKLEIK | 0.919 | 0.00163 | 1.78e+06 | 1.2 | 0.00126 | 1.05e+06 | – | – | –
4 | 21H12D9-VH2VL2 (Fab, V domains shown, Humanized Fab, human gamma 1 and kappa constant domains; also called 21VH12D9-VH2VL2) VH: QVQLVQSGAEVVKPGASVKVSCKASGYTFTDYYMNWVRQAPGQGLEWMGVINPNNGGTTYKEKFKGRVTMTVDTSISTAYMELSRLRSDDTAVYYCARDDYDAGYWGQGTLVTVSS VL: DIQMTQSPSSVSTSVGDRVTITCKASQNVDTAVAWYQQKPGKAPKLLIYSASHRYTGVPSRFSGSGSGTDFTLTISSLQPEDFATYYCQQYTDFPLTFGQGTRLEIK | 1.94 | 0.000802 | 414000 | 1.32 | 0.00195 | 1.48e+06 | – | – | –
5 | 21H12D9-VH3VL3 (Fab, V domains shown, Humanized Fab, human gamma 1 and kappa constant domains; also called 21VH12D9-VH3VL3) VH: QVQLVQSGAEVVKPGASVKVSCKASGYTFTDYYMNWVRQAPGQGLEWIGVINPNNGGTTYKEKFKGRATLTVDTSISTAYMELSRLRSDDTAVYYCARDDYDAGYWGQGTLVTVSS VL: DIQMTQSPSSVSTSVGDRVTITCKASQNVDTAVAWYQQKPGKAPKLLIYSASHRYTGVPSRFSGSGSGTDFTLTISSVQPEDFATYYCQQYTDFPLTFGQGTRLEIK | 1.47 | 0.00207 | 1.41e+06 | 1.22 | 0.00182 | 1.49e+06 | – | – | –
6 | 21H12D9-VH1VL1 (Fab, V domains shown, Humanized Fab, human gamma 1 and kappa constant domains; also called 21VH12D9-VH1VL1) VH: QVQLVQSGAEVKKPGASVKVSCKASGYTFTDYYMNWVRQAPGQGLEWMGVINPNNGGTTYKEKFKGRVTMTRDTSISTAYMELSRLRSDDTAVYYCARDDYDAGYWGQGTLVTVSS VL: DIQMTQSPSSVSASVGDRVTITCKASQNVDTAVAWYQQKPGKAPKLLIYSASHRYTGVPSRFSGSGSGTDFTLTISSLQPEDFATYYCQQYTDFPLTFGQGTRLEIK | 1.33 | 0.00323 | 2.42e+06 | 1.23 | 0.00203 | 1.66e+06 | – | – | –
7 | 21H12D9-VH4VL3 (Fab, V domains shown, Humanized Fab, human gamma 1 and kappa constant domains; also called 21VH12D9-VH4VL3) VH: QVQLVQSGAEVVKPGASVKMSCKASGYTFTDYYMNWVRQAPGQGLEWIGVINPNNGGTTYKEKFKGRATLTVDTSIGTAYMELSRLRSDDTAVYYCARDDYDAGYWGQGTLLTVSS VL: DIQMTQSPSSVSTSVGDRVTITCKASQNVDTAVAWYQQKPGKAPKLLIYSASHRYTGVPSRFSGSGSGTDFTLTISSVQPEDFATYYCQQYTDFPLTFGQGTRLEIK | 1.59 | 0.00116 | 729000 | – | – | – | – | – | –
8 | 21H12D9-VH4VL1 (Fab, V domains shown, Humanized Fab, human gamma 1 and kappa constant domains; also called 21VH12D9-VH4VL1) VH: QVQLVQSGAEVVKPGASVKMSCKASGYTFTDYYMNWVRQAPGQGLEWIGVINPNNGGTTYKEKFKGRATLTVDTSIGTAYMELSRLRSDDTAVYYCARDDYDAGYWGQGTLLTVSS VL: DIQMTQSPSSVSASVGDRVTITCKASQNVDTAVAWYQQKPGKAPKLLIYSASHRYTGVPSRFSGSGSGTDFTLTISSLQPEDFATYYCQQYTDFPLTFGQGTRLEIK | 1.73 | 0.00107 | 618000 | – | – | – | – | – | –
9 | 368D6D10 (antibody, V domains shown, Hybridoma mAb) VH: DVQLQESGPGLVKPSQSLSLTCTVTGYSITSDYAWNWIRQFPGNKLEWMGYISYSGSTSYNPSLKSRISITRDTSKNQFFLQLNSVTTEDTATYYCVAGHFDYWGQGTTLTVSS VL: not shown | – | – | – | – | – | – | 0.0864 | 0.14 | no binding
10 | 355A1F6 (antibody, V domains shown, Hybridoma mAb) VH: DVQLQESGPGLVKPSQSLSLTCTVTGYSITSDYAWSWIRQFPGNKLEWMGYISYSDSTSYNPSLKSRISITRDTSKNQFFLQLNSVTAEDTATYYCAAGHFDYWGQGTILTVSS VL: not shown | – | – | – | – | – | – | 0.0943 | 0.154 | no binding

Next, values leading:

Row | Kd (human CXCL13 [1]) [nM] | koff (human CXCL13 [1]) [s⁻¹] | kon (human CXCL13 [1]) [M⁻¹ s⁻¹] | Kd (human CXCL13 [2]) [nM] | koff (human CXCL13 [2]) [s⁻¹] | kon (human CXCL13 [2]) [M⁻¹ s⁻¹] | EC50 (human CXCL13 [3]) [µg/mL] | EC50 (cynomolgus CXCL13) [µg/mL] | binding result (mouse CXCL13) | Binder
11 | 14.5 | 0.00114 | 78200 | 2.83 | 0.00161 | 570000 | – | – | – | 411A11E9-VH1VL2 (Fab, V domains shown, Humanized Fab, human gamma 1 and kappa constant domains) VH: EVQLVESGGGLVQPGGSLRLSCAASGFTFSDYYMAWVRQAPGKGLEWVASINYDGGDTYYRDSVKGRFTISRDNAKNSLYLQMNSLRAEDTAVYYCAREEDYDGSYVMDAWGQGTLVTVSS VL: DIQMTQSPSSLSASVGDRVTITCKASQNINKELTWYQQKPGKAPKRLIYNTNILQTGVPSRFSGSGSGTEFTLTISSLQPEDFATYFCLQQSSLYTFGQGTKLEIK
12 | 0.634 | 0.00105 | 1.66e+06 | 0.931 | 0.000887 | 953000 | – | – | – | 411A11E9-VH2VL4 (Fab, V domains shown, Humanized Fab, human gamma 1 and kappa constant domains) VH: EVQLVESGGGLVQPGGSLRLSCAASGFTFSDYYMAWVRQAPGKGLEWVASINYDGGDTYYRDSVKGRFTISRDNAKNSLYLQMNSLRAEDTAVYYCATEEDYDGSYVMDAWGQGTLVTVSS VL: DIQMTQSPSSLSASVGDRVTITCKASQNINKELTWYQQKPGKAPKRLIYNTNILQTGIPSRFSGSGSGTEYTLTISSLQPEDFATYFCLQQSSLYTFGQGTKLEIK
13 | 1.54 | 0.00114 | 742000 | – | – | – | – | – | – | 21H12D9-VH4VL2 (Fab, V domains shown, Humanized Fab, human gamma 1 and kappa constant domains; also called 21VH12D9-VH4VL2) VH: QVQLVQSGAEVVKPGASVKMSCKASGYTFTDYYMNWVRQAPGQGLEWIGVINPNNGGTTYKEKFKGRATLTVDTSIGTAYMELSRLRSDDTAVYYCARDDYDAGYWGQGTLLTVSS VL: DIQMTQSPSSVSTSVGDRVTITCKASQNVDTAVAWYQQKPGKAPKLLIYSASHRYTGVPSRFSGSGSGTDFTLTISSLQPEDFATYYCQQYTDFPLTFGQGTRLEIK
14 | 1.99 | 0.000757 | 380000 | 1.19 | 0.00171 | 1.44e+06 | – | – | – | 21H12D9-VH1VL2 (Fab, V domains shown, Humanized Fab, human gamma 1 and kappa constant domains; also called 21VH12D9-VH1VL2) VH: QVQLVQSGAEVKKPGASVKVSCKASGYTFTDYYMNWVRQAPGQGLEWMGVINPNNGGTTYKEKFKGRVTMTRDTSISTAYMELSRLRSDDTAVYYCARDDYDAGYWGQGTLVTVSS VL: DIQMTQSPSSVSTSVGDRVTITCKASQNVDTAVAWYQQKPGKAPKLLIYSASHRYTGVPSRFSGSGSGTDFTLTISSLQPEDFATYYCQQYTDFPLTFGQGTRLEIK
15 | – | – | – | – | – | – | 0.0668 | 0.0557 | no binding | 367F1C2 (antibody, V domains shown, Hybridoma mAb) VH: DVQLQESGPGLVKPSQSLSLTCTVTGYSITSDYAWNWIRHFPGNKLEWMGYISYTGSSSYNPSLKSRISITRDTSKNQFFLQLNSVTSEDTATYYCVAGHFDYWGPGTTLTVSS VL: not shown
16 | – | – | – | – | – | – | 0.0636 | 0.0765 | no binding | 348E12F12 (antibody, V domains shown, Hybridoma mAb) VH: DVQLQESGPGLVKPSQSLSLTCTVTGYSITSDYAWNWIRQFPGNKLEWMGYISYSGDTSYNPSLKSRISITRDTSKNQFFLQLNSVTTEDTATYYCVAGHFDYWGQGTTLTVSS VL: not shown
17 | – | – | – | – | – | – | 0.135 | 0.172 | no binding | 353F9C4 (antibody, V domains shown, Hybridoma mAb) VH: DVQLQESGPGLVKPSQSLSLTCTVTGYSITSDYAWSWIRQFPGNKLEWMGYITYSDSTSYNPSLKSRISITRDTSKNQFFLQLNSVTAEDTATYYCAAGHFDYWGQGTILTVSS VL: not shown
